B2: full-length BMP-binding endothelial cell precursor-derived regulator (FL-BMPER) (natural protein)
chain: not shown
modifications: N-glycosylated (five predicted N-glycosylation sites)
notes: BMPER, human, full length, based on NCBI NM_133468.4; five vWFC domains, one vWFD domain, one TIL domain; His tag is thrombin cleavable; The protein is internally cleaved at the G368DPH371 site; the two fragments stay joined by the disulphide C364-C497; also called full length BMPER; Crossveinless-2 (CV2) in other species

How the values were obtained:
[1] = biological target: T1, N-BMPER (N-terminal five vWFC domains of human BMPER) (human, UniProt Q8N8U9 40-358, N-glycosylated (four predicted sites in the vWFC domains)); test: SPR; ProteOn XPR36; Tsg immobilised on a GLC chip by amine coupling; FL-BMPER (0-150 nM) or N-BMPER (0-50 nM) as analytes; 10 mM phosphate pH 7.4, 137 mM NaCl, 2.7 mM KCl, 0.005% Tween-20, 25 °C; KD of FL-BMPER by equilibrium analysis, of N-BMPER by Langmuir 1:1 model; settings: both partners purified
T1 construct: BMPER, human, the N-terminal five vWFC domains (vWFC1-5), based on NCBI NM_133468.4; His tag is thrombin cleavable; also called C-terminally truncated N-BMPER

[2] = biological target: B2; test: as above; settings: both partners purified
[3] = biological target: the molecule itself; test: AUC; sedimentation velocity, 230 nm, 45000 rpm, 20 °C
[4] = biological target: T1, N-BMPER (N-terminal five vWFC domains …); test: SPR; chordin vWFC2-3 immobilised, N-BMPER in solution phase; Langmuir 1:1 model; settings: both partners purified

T1 sequence (Q8N8U9 40-358): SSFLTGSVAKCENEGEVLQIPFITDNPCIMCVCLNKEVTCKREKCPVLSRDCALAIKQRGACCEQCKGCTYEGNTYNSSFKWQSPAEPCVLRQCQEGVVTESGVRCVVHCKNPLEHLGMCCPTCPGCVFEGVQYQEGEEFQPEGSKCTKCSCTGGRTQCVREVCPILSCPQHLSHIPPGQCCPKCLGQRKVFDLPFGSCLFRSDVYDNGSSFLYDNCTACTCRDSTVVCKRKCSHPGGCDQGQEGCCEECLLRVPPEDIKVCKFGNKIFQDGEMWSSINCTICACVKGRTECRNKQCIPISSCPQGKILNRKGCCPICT

B1: twisted gastrulation (Tsg) (natural protein, human, UniProt Q9GZX9 26-223, looked up)
chain: CNKALCASDVSKCLIQELCQCRPGEGNCSCCKECMLCLGALWDECCDCVGMCNPRNYSDTPPTSKSTVEELHEPIPSLFRALTEGDTQLNWNIVSFPVAEELSHHENLVSFLETVNQPHHQNVSVPSNNVHAPYSSDKEHMCTVVYFDDCMSIHQCKISCESMGASKYRWFHNACCECIGPECIDYGSKTVKCMNCMF
notes: twisted gastrulation (Tsg)
Kd [1]: 0.55 nM | koff [1]: 0.000228 s⁻¹ | kon [1]: 415000 M⁻¹ s⁻¹ | Kd [2]: 68.4 nM | koff [2]: 0.000203 s⁻¹ | kon [2]: 2970 M⁻¹ s⁻¹

B2
binding result [3]: binds

B3: chordin vWFC2-3 (domain or fragment, UniProt Q9H2X0 703-850, looked up)
chain: NTCFFEGQQRPHGARWAPNYDPLCSLCTCQRRTVICDPVVCPPPSCPHPVQAPDQCCPVCPEKQDVRDLPGLPRSRDPGEGCYFDGDRSWRAAGTRWHPVVPPFGLIKCAVCTCKGGTGEVHCEKVQCPRLACAQPVRVNPTDCCKQC
notes: chordin, domains vWFC2-3
Kd [4]: 0.2 nM | koff [4]: 8.22e-05 s⁻¹ | kon [4]: 404000 M⁻¹ s⁻¹
